The values that follow come from the supplement of paper PMC9428881.

± gives the standard error.

The nature of the series: background-corrected fluorescence of 3'-dye-labeled ssDNA relative to brightest sequence (3'-GCGCG) (fraction); higher = brighter dye fluorescence (less quenching). The gist of the method: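 By light-directed phosphoramidite synthesis, single-stranded DNA ending in a 3' Cy3 or Cy5 dye beside each of 1024 permuted pentamers was built on glass slides. Scanning at 532 or 635 nm took place before and after overnight ethylenediamine/ethanol deprotection. Data are means of 10 features per array over at least 3 syntheses. Fluorescence is corrected for unlabeled-oligo background and scaled to the brightest sequence.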

As to “TTTTTTCAGCATGATGCTGATTTTTTTTTTTTTTTGTCAC [CACTG]”, the background-corrected fluorescence (dye: Cy3 (3' terminal)) came to 0.417 ± 0.0042 and the background-corrected fluorescence (dye: Cy5 (3' terminal)) came to 0.336 ± 0.022.
The corresponding values for “TTTTTTCAGCATGATGCTGCTTTTTTTTTTTTTTTGTCAA [AACTG]” are 0.609 ± 0.012 and 0.453 ± 0.04.
The corresponding values for “TTTTTTCAGCATGCGCAGCATTTTTTTTTTTTTTTGTATT [TTATG]” are 0.5 ± 0.07 and 0.375 ± 0.03.
“TTTTTTCAGCATGCGCATCATTTTTTTTTTTTTTTGTATG”: the background-corrected fluorescence was found to be 0.57 ± 0.011 (dye: Cy3 (3' terminal)) and 0.419 ± 0.027 (dye: Cy5 (3' terminal)).
On the same counts, the results for “TTTTTTCAGCATGCGCATGATTTTTTTTTTTTTTTGTATC [CTATG]” are 0.417 ± 0.024 and 0.309 ± 0.019.
Turning to “TTTTTTCAGCATGCGCATGCTTTTTTTTTTTTTTTGTATA [ATATG]”, the background-corrected fluorescence is 0.55 ± 0.031 (dye: Cy3 (3' terminal)) and 0.404 ± 0.027 (dye: Cy5 (3' terminal)).
On the same counts, the results for “TTTTTTCAGCATGCTCAGCATTTTTTTTTTTTTTTGTAGT [TGATG]” are 0.575 ± 0.0066 and 0.459 ± 0.032.
Turning to “TTTTTTCAGCATGCTCATCATTTTTTTTTTTTTTTGTAGG [GGATG]”, the background-corrected fluorescence by setting is: (dye: Cy3 (3' terminal)) 0.618 ± 0.027; (dye: Cy5 (3' terminal)) 0.51 ± 0.1.
The corresponding values for “TTTTTTCAGCATGCTCATGATTTTTTTTTTTTTTTGTAGC [CGATG]” are 0.535 ± 0.028 and 0.441 ± 0.081.
“TTTTTTCAGCATGCTCATGCTTTTTTTTTTTTTTTGTAGA [AGATG]”: the background-corrected fluorescence was 0.671 ± 0.021 (dye: Cy3 (3' terminal)) and 0.533 ± 0.039 (dye: Cy5 (3' terminal)).
As to “TTTTTTCAGCATGCTGAGCATTTTTTTTTTTTTTTGTACT [TCATG]”, the background-corrected fluorescence (dye: Cy3 (3' terminal)) worked out at 0.476 ± 0.0074 and the background-corrected fluorescence (dye: Cy5 (3' terminal)) was found to be 0.399 ± 0.025.
On the same counts, the results for “TTTTTTCAGCATGCTGATCATTTTTTTTTTTTTTTGTACG” are 0.561 ± 0.02 and 0.475 ± 0.031.
For the sequence “TTTTTTCAGCATGCTGATGATTTTTTTTTTTTTTTGTACC [CCATG]”, the background-corrected fluorescence is 0.434 ± 0.028 (dye: Cy3 (3' terminal)) and 0.311 ± 0.017 (dye: Cy5 (3' terminal)).
The sequence “TTTTTTCAGCATGCTGATGCTTTTTTTTTTTTTTTGTACA [ACATG]” registered a background-corrected fluorescence (dye: Cy3 (3' terminal)) of 0.528 ± 0.0051 and a background-corrected fluorescence (dye: Cy5 (3' terminal)) of 0.399 ± 0.019.
On the same counts, the results for “TTTTTTCAGCATGCTGCGCATTTTTTTTTTTTTTTGTAAT [TAATG]” are 0.531 ± 0.019 and 0.435 ± 0.043.
The corresponding values for “TTTTTTCAGCATGCTGCTCATTTTTTTTTTTTTTTGTAAG [GAATG]” are 0.582 ± 0.038 and 0.462 ± 0.069.
The corresponding values for “TTTTTTCAGCATGCTGCTGATTTTTTTTTTTTTTTGTAAC [CAATG]” are 0.441 ± 0.025 and 0.364 ± 0.026.
In the case of “TTTTTTCAGCATGCTGCTGCTTTTTTTTTTTTTTTGTAAA [AAATG]”, the background-corrected fluorescence reads like this: (dye: Cy3 (3' terminal)) 0.618 ± 0.014; (dye: Cy5 (3' terminal)) 0.513 ± 0.028.
On the same counts, the results for “TTTTTTCATCAGCAGCAGCATTTTTTTTTTTTTTTGGTTT” are 0.536 ± 0.02 and 0.402 ± 0.045.
Take “TTTTTTCATCAGCAGCATCATTTTTTTTTTTTTTTGGTTG [GTTGG]”: the background-corrected fluorescence reads like this: (dye: Cy3 (3' terminal)) 0.524 ± 0.02; (dye: Cy5 (3' terminal)) 0.392 ± 0.022.
“TTTTTTCATCAGCAGCATGATTTTTTTTTTTTTTTGGTTC [CTTGG]”: the background-corrected fluorescence is 0.414 ± 0.026 (dye: Cy3 (3' terminal)) and 0.31 ± 0.025 (dye: Cy5 (3' terminal)).
The sequence “TTTTTTCATCAGCAGCATGCTTTTTTTTTTTTTTTGGTTA [ATTGG]” had a background-corrected fluorescence (dye: Cy3 (3' terminal)) of 0.53 ± 0.015 and a background-corrected fluorescence (dye: Cy5 (3' terminal)) of 0.446 ± 0.071.
The corresponding values for “TTTTTTCATCAGCATCAGCATTTTTTTTTTTTTTTGGTGT [TGTGG]” are 0.663 ± 0.02 and 0.511 ± 0.037.
Regarding “TTTTTTCATCAGCATCATCATTTTTTTTTTTTTTTGGTGG”, the background-corrected fluorescence is, setting by setting: (dye: Cy3 (3' terminal)) 0.629 ± 0.028; (dye: Cy5 (3' terminal)) 0.483 ± 0.055.
